Test results from PMC5765368, “Large-Scale Low-Cost NGS Library Preparation Using a Robust Tn5 Purification and Tagmentation Protocol”.

Key:
[1] = molecular target: Tn5 transposase, hyperactive allele carrying the E54K and L372P mutations; assay: SEC; untagged Tn5 on Superdex200 Increase 10/300 GL (Superdex200 10/300 GL at BZH) in 50 mM Tris pH 7.5, 800 mM NaCl, 0.2 mM EDTA, 2 mM DTT, 10% glycerol; last step of the purification
[2] = molecular target: Tn5 transposase, hyperactive allele carrying the R27S, E54K and L372P mutations; assay: as above
[3] = molecular target: Tn5 transposase R27S,E54K,L372P (bacterial transposon Tn5 (expressed in …, UniProt Q46731 1-476, R27S;E54K;L372P)); assay: ITC; ITC: 50 mM Tris pH 7.5, 800 mM NaCl, 0.1 mM EDTA, 5% glycerol, 25 C; 100 uM DNA titrated into 4 uM protein; conditions: protein: recombinant; tags: His6-Sumo3 removed by SenP2; one extra N-terminal Ser remains; chain copies: 2; 19 bp duplex with 5' overhang (14 nt for ME-A, 15 nt for ME-B)
[4] = molecular target: Tn5 transposase E54K,L372P (hyperactive) (bacterial transposon Tn5 (expressed in …, UniProt Q46731 1-476, E54K;L372P)); assay: as above; conditions: protein: recombinant; tags: His6-Sumo3 removed by SenP2; one extra N-terminal Ser remains; chain copies: 2; 19 bp duplex with 5' overhang (14 nt for ME-A, 15 nt for ME-B)

## Tn5 transposase, hyperactive allele carrying the E54K and L372P mutations (enzyme)
[1]
  stoichiometry N: 2

## Tn5 transposase, hyperactive allele carrying the R27S, E54K and L372P mutations (enzyme)
[2]
  stoichiometry N: 2

B1: annealed Tn5 linker oligonucleotide (mosaic end); Tn5ME-A/Tn5MErev or Tn5ME-B/Tn5MErev, not stated which (dsDNA)
DNA 1: TCGTCGGCAGCGTCAGATGTGTATAAGAGACAG
DNA 2: CTGTCTCTTATACACATCT
modifications: 5' phosphate on Tn5MErev
[3]
  Kd: 12.9 ± 2.1 µM
[4]
  Kd: 0.5 ± 0.09 µM
